“Also recorded” adds a separate entry of the source. Where two headings read alike, the source gives them in different places.
System: Nav1.6
Assay: Patch-clamp recording of VGSC current in HEK (Nav1.6) cells
Assay type: cell-based, human

B1: Thaumatin: sweet-tasting protein binding to the CRD of T1R3 (protein)
chain: ATFEIVNRCSYTVWAAASKGDAALDAGGRQLNSGESWTINVEPGTNGGKIWARTDCYFDDSGSGICKTGDCGGLLRCKRFGRPPTTLAEFSLNQYGKDYIDISNIKGFNVPMDFSPTTRGCRGVRCAADIVGQCPAKLKAPGGGCNDACTVFQTSEYCCTTGKCGPTEYSRFFKRLCPDAFSYVLDKPTTVTCPGSSNYRVTFCPTA
Effect on VGSC current, alone: amplified VGSC currents similarly to Aβ1-42 | Effect on VGSC current when applied after Aβ1-42 (listed as thaumatin): further amplification of VGSC currents was not observed; also recorded: no further amplification | Effect on VGSC current, alone (listed as thaumatin): similarly amplified VGSC currents as Aβ1-42

From patent publication US20260240820A1, “METHOD FOR CONTROLLING MEMBRANE POTENTIAL-DEPENDENT ION CHANNEL THROUGH TYPE I TASTE RECEPTORS (T1RS)” (ION CHAT RESEARCH CORPORATE, priority 2022, published 2026)
